Patent US20220041999A1 (NEOGENE THERAPEUTICS B V, published 2022)
Changes are numbered by the printed parent chain. Each block holds one molecule with its values, some of them ahead of it.

What was measured:
FOS^MUT3AA-mDHFR_B = target: T1, FOS^MUT3AA-mDHFR_B; assay: cell-based or functional assay
T1 chain: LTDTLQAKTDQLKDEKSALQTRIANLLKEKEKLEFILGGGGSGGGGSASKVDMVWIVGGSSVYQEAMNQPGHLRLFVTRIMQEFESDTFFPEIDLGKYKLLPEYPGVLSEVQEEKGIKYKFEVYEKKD

FOS^MUT4AA-mDHFR_B [1] = target: T2, FOS^MUT4AA-mDHFR_B; assay: cell-based or functional assay
T2 chain: T1 chain with E29K

sFOS^MUT8AA-mDHFR_B = target: T3, sFOS^MUT8AA-mDHFR_B; assay: cell-based or functional assay
T3 chain: T1 chain with T2R, E15N, K16Q, E29K, K30Q

sFOS-mDHFR_B = target: T4, sFOS-mDHFR_B (murine); assay: cell-based or functional assay
T4 chain: T1 chain with K8E, K13E, R22E

FOS-mDHFRmt_B = target: T5, FOS-mDHFRmt_B; assay: cell-based or functional assay
T5 chain: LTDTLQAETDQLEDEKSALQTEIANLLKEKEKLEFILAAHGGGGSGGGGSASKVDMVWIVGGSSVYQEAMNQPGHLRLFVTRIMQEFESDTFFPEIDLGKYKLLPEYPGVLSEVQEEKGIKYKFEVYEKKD

FOS^WT-mDHFR_B [2] = target: T6, FOS^WT-mDHFR_B; assay: cell-based or functional assay
T6 chain: T5 chain

FOS^MUT4AA-mDHFR_B [3] = target: T2, FOS^MUT4AA-mDHFR_B; assay: split-DHFR complementation, 100 nM MTX 10 days, FACS
From the text: (§1) FIGS. 44A-44D show the results of MTX selection of double engineered BC76 T cells. Activated human primary T cells isolated from a buffy coat, BC76, were double-infected with retroviral vectors encoding an MTX-resistant murine DHFR^FS mutant (mDHFR) split into an N-terminal and C-terminal protein half (vector A and B), fused to heterodimerizing JUN-FOS leucine zippers. JUN^WT depicts a wildtype JUN leucine zipper, FOS^WT depicts a wildtype FOS leucine zipper, JUN^MUT3AA depicts a mutant JUN leucine zipper containing three acidic amino acids from FOS, FOS^MUT3AA depicts a mutant FOS leucine zipper containing three basic amino acids from JUN, JUN^MUT4AA depicts a mutant JUN leucine zipper containing four acidic amino acids from FOS, FOS^MUT4AA depicts a mutant FOS leucine zipper containing four basic amino acids from JUN. Vector A and B also encoded a Ly6G and CD90.2 transduction marker, respectively. Starting at 4 days post transduction, cells were either left untreated (row 1), or were treated with 100 nM MTX for 10 days (row 2), after which enrichment of double transduced cells was measured by FACS analysis.

FOS-mDHFRmt_B-2A = target: T7, FOS-mDHFRmt_B-2A; assay: cell-based or functional assay
T7 chain: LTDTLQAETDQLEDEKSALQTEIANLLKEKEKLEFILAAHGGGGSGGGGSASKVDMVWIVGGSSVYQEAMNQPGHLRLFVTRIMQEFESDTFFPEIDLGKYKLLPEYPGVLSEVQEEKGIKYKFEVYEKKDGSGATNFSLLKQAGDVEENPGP

FOS^WT-mDHFR_B [4] = target: T6, FOS^WT-mDHFR_B; assay: split-DHFR complementation, 100 nM MTX 10 days, FACS
From the text: as §1

fold enrichment of double transduced T cells (FACS), BC45, 25 nM MTX 4 days (FOS-mDHFRmt_B-2A): 5.3 fold | fold enrichment of double transduced T cells (FACS), BC45, 50 nM MTX 4 days (FOS-mDHFRmt_B-2A): 10.5 fold | fold enrichment of double transduced T cells (FACS), BC45, further 100 nM MTX 3 days, row 2 (FOS-mDHFRmt_B-2A): 15.5 fold | fold enrichment of double transduced T cells (FACS), BC45, further 100 nM MTX 3 days, row 3 (FOS-mDHFRmt_B-2A): 18.9 fold | fold enrichment of double transduced T cells (FACS), BC46, 25 nM MTX 4 days (FOS-mDHFRmt_B-2A): 3.6 fold | fold enrichment of double transduced T cells (FACS), BC46, 50 nM MTX 4 days (FOS-mDHFRmt_B-2A): 8.3 fold | fold enrichment of double transduced T cells (FACS), BC46, further 100 nM MTX 3 days, row 2 (FOS-mDHFRmt_B-2A): 10.4 fold | fold enrichment of double transduced T cells (FACS), BC46, further 100 nM MTX 3 days, row 3 (FOS-mDHFRmt_B-2A): 16.9 fold
B3: JUN-mDHFRmt_A-2A (other)
chain: RIARLEEKVKTLKAQNSELASTANMLREQVAQLKQKVMNHGGGGSGGGGSMVRPLNCIVAVSQNMGIGKNGDFPWPPLRNESKYFQRMTTTSSVEGKQNLVIMGRKTWFSIPEKNRPLKDRINIVLSRELKEPPRGAHFLAKSLDDALRLIEQPELGSGATNFSLLKQAGDVEENPGP

fold enrichment of double knock-in T cells (FACS), BC78, 100 nM MTX 6 days (FOS^MUT4AA-mDHFR_B [1]): 54 fold | fold enrichment of double transduced T cells (FACS), BC76, 100 nM MTX 10 days (FOS^MUT4AA-mDHFR_B [1]): 70 fold | fold enrichment of double transduced T cells (FACS), shorter zippers, donor A, 100 nM MTX 6 days (FIG. 50) (FOS^MUT4AA-mDHFR_B [1]): 39 fold | fold enrichment of double transduced T cells (FACS), shorter zippers, donor B, 100 nM MTX 6 days (FIG. 50) (FOS^MUT4AA-mDHFR_B [1]): 4.7 fold | fold enrichment of double transduced T cells (FACS), BC76, 100 nM MTX 10 days (FOS^WT-mDHFR_B [2]): 2.6 fold | fold enrichment of double transduced T cells (FACS), shorter zippers, donor A, 100 nM MTX 6 days (FIG. 50) (sFOS-mDHFR_B): 2.2 fold | fold enrichment of double transduced T cells (FACS), shorter zippers, donor B, 100 nM MTX 6 days (FIG. 50) (sFOS-mDHFR_B): 1.5 fold | binding result (FOS^WT-mDHFR_B [4]): no binding
B6: JUN^MUT4AA-mDHFR_A (other)
chain: RIARLEEEVKTLEAQNSELASTANMLEEQVAQLEQKVGGGGSGGGGSMVRPLNCIVAVSQNMGIGKNGDFPWPPLRNESKYFQRMTTTSSVEGKQNLVIMGRKTWFSIPEKNRPLKDRINIVLSRELKEPPRGAHFLAKSLDDALRLIEQPEL

The next lines start with the molecule.

Molecule: sJUN-mDHFR_A
fold enrichment of double transduced T cells (FACS), shorter zippers, donor A, 100 nM MTX 6 days (FIG. 49) (FOS^MUT3AA-mDHFR_B): 1.7 fold | fold enrichment of double transduced T cells (FACS), shorter zippers, donor B, 100 nM MTX 6 days (FIG. 49) (FOS^MUT3AA-mDHFR_B): 1.4 fold | fold enrichment of double transduced T cells (FACS), shorter zippers, donor A, 100 nM MTX 6 days (FIG. 50) (FOS^MUT4AA-mDHFR_B [1]): 1.5 fold | fold enrichment of double transduced T cells (FACS), shorter zippers, donor B, 100 nM MTX 6 days (FIG. 50) (FOS^MUT4AA-mDHFR_B [1]): 1.2 fold | fold enrichment of double transduced T cells (FACS), 100 nM MTX 6 days (FIGS. 51A-51B) (sFOS^MUT8AA-mDHFR_B): 1.5 fold | fold enrichment of double transduced T cells (FACS), 100 nM MTX 6 days (FIGS. 51A-51B) (sFOS-mDHFR_B): 12.3 fold | fold enrichment of double transduced T cells (FACS), shorter zippers, donor A, 100 nM MTX 6 days (FIG. 49) (sFOS-mDHFR_B): 66 fold | fold enrichment of double transduced T cells (FACS), shorter zippers, donor B, 100 nM MTX 6 days (FIG. 49) (sFOS-mDHFR_B): 7.6 fold

B1: JUN-mDHFRmt_A (other)
chain: RIARLEEKVKTLKAQNSELASTANMLREQVAQLKQKVMNHGGGGSGGGGSMVRPLNCIVAVSQNMGIGKNGDFPWPPLRNESKYFQRMTTTSSVEGKQNLVIMGRKTWFSIPEKNRPLKDRINIVLSRELKEPPRGAHFLAKSLDDALRLIEQPEL
fold enrichment of double transduced T cells (FACS), BC45, 50 nM MTX 4 days (FOS-mDHFRmt_B): 4.4 fold | fold enrichment of double transduced T cells (FACS), BC45, further 100 nM MTX 3 days, row 2 (FOS-mDHFRmt_B): 11.3 fold | fold enrichment of double transduced T cells (FACS), BC45, further 100 nM MTX 3 days, row 3 (FOS-mDHFRmt_B): 94 fold | fold enrichment of double transduced T cells (FACS), BC46, 50 nM MTX 4 days (FOS-mDHFRmt_B): 6.2 fold | fold enrichment of double transduced T cells (FACS), BC46, further 100 nM MTX 3 days, row 2 (FOS-mDHFRmt_B): 4 fold | fold enrichment of double transduced T cells (FACS), BC46, further 100 nM MTX 3 days, row 3 (FOS-mDHFRmt_B): 23.2 fold

B2: JUN^WT-mDHFR_A (other)
chain: B1 chain
fold enrichment of double transduced T cells (FACS), BC54, 100 nM MTX 2 days (FOS^MUT3AA-mDHFR_B): 1.9 fold | fold enrichment of double transduced T cells (FACS), BC76, 100 nM MTX 10 days (FOS^MUT3AA-mDHFR_B): 3.1 fold | fold enrichment of double transduced T cells (FACS), donor B, 100 nM MTX 4 days (FOS^MUT3AA-mDHFR_B): 4 fold | fold enrichment of double transduced T cells (FACS), BC76, 100 nM MTX 10 days (FOS^MUT4AA-mDHFR_B [1]): 1.4 fold | fold enrichment of double transduced T cells (FACS), BC54, 100 nM MTX 2 days (FOS^WT-mDHFR_B [2]): 6.8 fold | fold enrichment of double transduced T cells (FACS), BC76, 100 nM MTX 10 days (FOS^WT-mDHFR_B [2]): 132 fold | fold enrichment of double transduced T cells (FACS), donor B, 100 nM MTX 4 days (FOS^WT-mDHFR_B [2]): 15.5 fold | binding result (FOS^MUT4AA-mDHFR_B [3]): no binding

B4: JUN^MUT3AA-mDHFR_A (other)
chain: B6 chain with E34K
fold enrichment of double transduced T cells (FACS), BC54, 100 nM MTX 2 days (FOS^MUT3AA-mDHFR_B): 5.6 fold | fold enrichment of double transduced T cells (FACS), BC76, 100 nM MTX 10 days (FOS^MUT3AA-mDHFR_B): 72 fold | fold enrichment of double transduced T cells (FACS), donor B, 100 nM MTX 4 days (FOS^MUT3AA-mDHFR_B): 10.5 fold | fold enrichment of double transduced T cells (FACS), shorter zippers, donor A, 100 nM MTX 6 days (FIG. 49) (FOS^MUT3AA-mDHFR_B): 49 fold | fold enrichment of double transduced T cells (FACS), shorter zippers, donor B, 100 nM MTX 6 days (FIG. 49) (FOS^MUT3AA-mDHFR_B): 6.6 fold | fold enrichment of double transduced T cells (FACS), BC54, 100 nM MTX 2 days (FOS^WT-mDHFR_B [2]): 3.9 fold | fold enrichment of double transduced T cells (FACS), BC76, 100 nM MTX 10 days (FOS^WT-mDHFR_B [2]): 19 fold | fold enrichment of double transduced T cells (FACS), donor B, 100 nM MTX 4 days (FOS^WT-mDHFR_B [2]): 11.2 fold | fold enrichment of double transduced T cells (FACS), shorter zippers, donor A, 100 nM MTX 6 days (FIG. 49) (sFOS-mDHFR_B): 3.2 fold | fold enrichment of double transduced T cells (FACS), shorter zippers, donor B, 100 nM MTX 6 days (FIG. 49) (sFOS-mDHFR_B): 1.5 fold

B5: sJUN^MUT8AA-mDHFR_A (other)
chain: B6 chain with R1T, Q15K, N16E, Q29K
fold enrichment of double transduced T cells (FACS), 100 nM MTX 6 days (FIGS. 51A-51B) (sFOS^MUT8AA-mDHFR_B): 2.2 fold | fold enrichment of double transduced T cells (FACS), 100 nM MTX 6 days (FIGS. 51A-51B) (sFOS-mDHFR_B): 0.9 fold
